Reference: article PMC12220977 (2025)
Positions count from the first letter of the chain named. One block for each molecule: values may come before it.

Experiments:
[1] = molecular target: PAI-1WT (wild-type plasminogen activator inhibitor 1, recombinant) (UniProt P05121); experiment: SPR; competition: 250 nM PAI-1WT preincubated with increasing concentrations of SMB, then flowed over immobilised full-length SorLA; HBS-P buffer with 1.0 mM CaCl2, pH 7.4, 25°C
[2] = molecular target: T1, Soluble full-length SorLA (sortilin-related receptor 1) (UniProt Q92673 82-2137); experiment: SPR; SorLA or its VPS10 domain immobilised on a CM5 chip (5,000 and 2,500 RU); PAI-1 flowed over; HBS-P buffer with 1.0 mM CaCl2, pH 7.4, 25°C, 20 uL/min; equilibrium analysis (Req/Rmax), single binding site
[3] = molecular target: T1, Soluble full-length SorLA …; experiment: SPR
[4] = molecular target: T2, SorLA VPS10 domain (vacuolar protein sorting 10 domain); experiment: SPR
T2 chain: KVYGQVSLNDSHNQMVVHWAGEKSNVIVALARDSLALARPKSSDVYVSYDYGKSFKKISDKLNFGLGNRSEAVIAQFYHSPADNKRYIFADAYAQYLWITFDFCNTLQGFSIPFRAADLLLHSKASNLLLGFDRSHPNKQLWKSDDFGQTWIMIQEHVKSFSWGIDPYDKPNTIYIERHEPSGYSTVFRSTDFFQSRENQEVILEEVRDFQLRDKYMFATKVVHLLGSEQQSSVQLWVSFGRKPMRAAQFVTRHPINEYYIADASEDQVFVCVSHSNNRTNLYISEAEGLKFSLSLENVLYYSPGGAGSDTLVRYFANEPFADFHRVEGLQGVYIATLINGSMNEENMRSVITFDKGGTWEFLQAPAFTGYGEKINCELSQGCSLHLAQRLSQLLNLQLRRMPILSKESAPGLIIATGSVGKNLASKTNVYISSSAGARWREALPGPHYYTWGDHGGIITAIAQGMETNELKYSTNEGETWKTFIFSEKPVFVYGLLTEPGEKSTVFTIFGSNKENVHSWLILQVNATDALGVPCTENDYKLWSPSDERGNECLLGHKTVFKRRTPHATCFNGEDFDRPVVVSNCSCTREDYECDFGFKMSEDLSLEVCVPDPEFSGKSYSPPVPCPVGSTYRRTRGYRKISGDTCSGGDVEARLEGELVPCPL

IC50 [1]: 464 nM
Molecule: Somatomedin B (SMB) domain of vitronectin (VTN) (from UniProt P04004 20-63) (domain or fragment)

Kd [2]: 126 nM | Kd [3]: 102 nM | Kd [4]: 1590 nM
B1: PAI-1WT (wild-type plasminogen activator inhibitor 1, recombinant) (natural protein)
chain: VHHPPSYVAHLASDFGVRVFQQVAQASKDRNVVFSPYGVASVLAMLQLTTGGETQQQIQAAMGFKIDDKGMAPALRHLYKELMGPWNKDEISTTDAIFVQRDLKLVQGFMPHFFRLFRSTVKQVDFSEVERARFIINDWVKTHTKGMISHLLGTGAVDQLTRLVLVNALYFNGQWKTPFPDSSTHRRLFHKSDGSTVSVPMMAQTNKFNYTEFTTPDGHYYDILELPYHGDTLSMFIAAPYEKEVPLSALTNILSAQLISHWKGNMTRLPRLLVLPKFSLETEVDLRKPLENLGMTDMFRQFQADFTSLSDQEPLHVALALQKVKIEVNESGTVASSSTAVIVSARMAPEEIIIDRPFLFVVRHNPTGTVLFMGQVMEP

Kd [2]: 540 nM | Kd [3]: 491 nM
B2: PAI-1AK (PAI-1 Arg101Ala, Gln123Lys) (natural protein)
chain: B1 chain with R101A, Q123K
